A short description of assay [1]: Complementation of N-terminal split HaloTag constructs in E. coli lysates, Janelia Fluor ligand fluorescence. Type of assay: biochemical. The following applies: 500 nM Rapamycin, 50 nM JF646. As for the experimental part:
FIG. 21A-B. Comparison of complementation activity of N-terminal split HaloTag constructs. Each HaloTag fragment was expressed separately in E. coli and then combined after lysis. The smaller N-terminal HaloTag fragments as FKBP fusions were tested against the larger fragments of FIG. 21A HT(23-297)-FRB or FIG. 21B HT(22-297)-FRB. To each reaction, 500 nM Rapamycin was added and incubated at room temperature for 2.5 hours prior to addition of 50 nM JF646 ligand and measurement of fluorescence at the indicated timepoint.
FIG. 22. Comparison of truncations of N-terminal split HaloTag constructs. Each HaloTag fragment was expressed separately in E. coli and then combined after lysis. […] To each reaction, 500 nM Rapamycin was added and incubated at room temperature for 2 hours prior to addition of 50 nM JF646 ligand and measurement of fluorescence at the indicated timepoint.
FIG. 25A-B. Mutations in N-terminal split HaloTag fragments improve fluorescence intensity and fold response. […] To each reaction, 500 nM Rapamycin was added and incubated at room temperature for 2 hours prior to addition of 50 nM JF646 ligand and measurement of fluorescence at the indicated timepoint. FIG. 25A Fluorescence intensity is shown for +Rapamycin condition to show the overall system brightness relative to FIG. 25B Fold response following Rapamycin addition. […]

For assay [2], the system named is synthetic HaloTag[3-19] peptide. Nature of the assay: Complementation of large HaloTag fragment in E. coli lysates with synthetic HaloTag[3-19] peptide, JF646. Type of assay: binding. The following applies: for Kd: synthetic HaloTag[3-19] peptide titration up to 1 mM, estimated from saturation of fluorescence signal, read-out: affinity between the split HaloTag fragments. As for the experimental part: FIG. 30. Complementation of HaloTag[22-297](M2F) fragment in E. coli lysates using a synthetic HaloTag[3-19] peptide. […] Reactions were incubated for 2 hours at room temperature and then labeled with 50 nM JF646 HaloTag ligand prior to fluorescence detection.
FIG. 31. Complementation of HaloTag[22-297](Q145H+P154R) fragment in E. coli lysates using a synthetic HaloTag[3-19] peptide. […] Reactions were incubated for 2 hours at room temperature and then labeled with 50 nM JF646 HaloTag ligand prior to fluorescence detection.

[3] abbreviates: compared with HaloTag[22-297](M2F).

The source of these data is patent US20240174992A1, “SPLIT MODIFIED DEHALOGENASE VARIANTS” (Promega Corporation, priority 2022, published 2024).

B1: HaloTag[22-297](M2F): large HaloTag fragment, positions 22-297 with M to F substitution at second position (protein)
chain: MFHYVDVGPRDGTPVLFLHGNPTSSYVWRNIIPHVAPTHRCIAPDLIGMGKSDKPDLGYFFDDHVRFMDAFIEALGLEEVVLVIHDWGSALGFHWAKRNPERVKGIAFMEFIRPIPTWDEWPEFARETFQAFRTTDVGRKLIIDQNVFIEGTLPMGVVRPLTEVEMDHYREPFLNPVDREPLWRFPNELPIAGEPANIVALVEEYMDWLHQSPVPKLLFWGTPGVLIPPAEAARLAKSLPNCKAVDIGPGLNLLQEDNPDLIGSEIARWLSTLEISG
As for B1, the “effect of mutation in the HT(22-297) large fragment on system performance” value in assay [1] is listed as “improve the fold response”. The Kd in assay [2] is more than 100000 nM.

B2: HaloTag[22-297](Q145H+P154R): variant of the LgHT, positions 22-297 with HaloTag9 mutations (protein)
chain: MMHYVDVGPRDGTPVLFLHGNPTSSYVWRNIIPHVAPTHRCIAPDLIGMGKSDKPDLGYFFDDHVRFMDAFIEALGLEEVVLVIHDWGSALGFHWAKRNPERVKGIAFMEFIRPIPTWDEWPEFARETFQAFRTTDVGRKLIIDHNVFIEGTLRMGVVRPLTEVEMDHYREPFLNPVDREPLWRFPNELPIAGEPANIVALVEEYMDWLHQSPVPKLLFWGTPGVLIPPAEAARLAKSLPNCKAVDIGPGLNLLQEDNPDLIGSEIARWLSTLEISG
As for B2, the “effect of mutation in the HT(22-297) large fragment on system performance” value in assay [1] was “significantly enhanced the labeling speed”. In assay [2] (setting [3]), the complemented signal result was “higher complemented signal” and the fold response entry is on record as “lower fold response”. Besides, in assay [2], the Kd is approximately 1000 nM.
